Laboratory results published in patent US20250304643A1 (BAINAN BIOTECH, published 2025).
*1 amine or outer side, *2 acyl side, *3 side chain or, on linkers, in order; H or OH if unused. Where no end group is shown, it is not given here. Side-chain parts run from the residue outwards. [ ]: non-standard residue; d: D form. The star is where a group is joined. C16 diacid = O=C(O)CCCCCCCCCCCCCCC(=O)*; γGlu = O=C(O)[C@H](CCC(=O)[*:2])N[*:1]; Palmitoyl = CCCCCCCCCCCCCCCC(=O)*; Decanoyl = CCCCCCCCCC(=O)*; Aib = CC(C)(N)C(=O)O

T1: human glucose-dependent insulinotropic polypeptide receptor (human, UniProt P48546 22-466)
T1 sequence (looked up): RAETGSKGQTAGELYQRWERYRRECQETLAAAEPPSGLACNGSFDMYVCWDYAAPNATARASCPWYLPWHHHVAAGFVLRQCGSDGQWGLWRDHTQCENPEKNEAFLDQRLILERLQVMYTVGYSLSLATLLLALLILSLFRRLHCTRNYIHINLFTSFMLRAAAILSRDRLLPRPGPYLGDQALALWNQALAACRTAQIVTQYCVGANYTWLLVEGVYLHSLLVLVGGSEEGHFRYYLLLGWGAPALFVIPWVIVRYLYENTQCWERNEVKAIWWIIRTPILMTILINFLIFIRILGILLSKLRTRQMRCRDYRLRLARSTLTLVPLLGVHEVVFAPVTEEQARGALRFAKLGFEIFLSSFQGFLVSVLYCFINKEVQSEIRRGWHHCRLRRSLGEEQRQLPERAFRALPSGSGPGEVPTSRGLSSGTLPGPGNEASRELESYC

T2: human glucagon-like peptide-2 receptor (human, UniProt O95838 1-553)
T2 sequence (looked up): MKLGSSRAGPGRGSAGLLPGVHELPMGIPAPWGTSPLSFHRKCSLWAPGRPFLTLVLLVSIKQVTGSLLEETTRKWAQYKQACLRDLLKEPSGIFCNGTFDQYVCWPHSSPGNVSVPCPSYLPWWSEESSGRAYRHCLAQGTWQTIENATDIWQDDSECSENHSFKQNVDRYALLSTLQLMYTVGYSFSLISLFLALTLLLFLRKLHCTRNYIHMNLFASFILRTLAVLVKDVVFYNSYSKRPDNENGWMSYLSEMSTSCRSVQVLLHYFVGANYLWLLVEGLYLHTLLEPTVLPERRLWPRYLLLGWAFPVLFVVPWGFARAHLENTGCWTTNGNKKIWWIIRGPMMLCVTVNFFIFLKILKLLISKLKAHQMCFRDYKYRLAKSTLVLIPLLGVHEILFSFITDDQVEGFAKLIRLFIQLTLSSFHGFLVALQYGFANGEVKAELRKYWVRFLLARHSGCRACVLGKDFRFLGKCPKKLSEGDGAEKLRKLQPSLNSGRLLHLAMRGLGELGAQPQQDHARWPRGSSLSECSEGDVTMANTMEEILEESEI


Key:
[1] = target: T1, human glucose-dependent insulinotropic …; experiment: cell-based or functional assay
[2] = target: T2, human glucagon-like peptide-2 receptor; experiment: cell-based or functional assay

| Efficacy GIPR [1] [%] | Efficacy GLP-2R [2] [%] | EC50 (nM) GLP-2R [2] [nM] | logEC50 GLP-2R [2] | EC50 (nM) GIPR [1] [nM] | Binder |
| --- | --- | --- | --- | --- | --- |
| 91 | 93 | – | – | – | {C16 diacid}-H[Aib]DGTFISDYST[Aib]LDNLAAKDFINWLIQTKITKNDWKHNITQ-OH [Compound no. 42] |
| 91 | 74 | – | 8.8 | – | {C16 diacid}-H[Aib]EGTFISDYST[Aib]LDALAARDFINWLIQTKITKNDWKHNITQ-OH [Compound no. 41] |
| 98 | 82 | – | – | – | Palmitoyl-HADGTFISDYSTILDNLAARDFINWLLAQKITK [Compound no. 46] |
| 94 | 96 | – | 9 | 1 | {C16 diacid}-H[Aib]DGTFISDYST[Aib]LDNLAARDFINWLIQTKITKNDWKHNITQ-OH [Compound no. 40] |
| 110 | 100 | – | – | – | Decanoyl-H[Aib]DGTFISDYST[Aib]LDNLAARDFINWLIQTKITK-OH (SMILES CCCCCCCCCC(=O)N[C@@H](Cc1c[nH]cn1)C(=O)NC(C)(C)C(=O)N[C@@H](CC(=O)O)C(=O)NCC(=O)N[C@H](C(=O)N[C@@H](Cc1ccccc1)C(=O)N[C@H](C(=O)N[C@@H](CO)C(=O)N[C@@H](CC(=O)O)C(=O)N[C@@H](Cc1ccc(O)cc1)C(=O)N[C@@H](CO)C(=O)N[C@H](C(=O)NC(C)(C)C(=O)N[C@@H](CC(C)C)C(=O)N[C@@H](CC(=O)O)C(=O)N[C@@H](CC(N)=O)C(=O)N[C@@H](CC(C)C)C(=O)N[C@@H](C)C(=O)N[C@@H](C)C(=O)N[C@@H](CCCNC(=N)N)C(=O)N[C@@H](CC(=O)O)C(=O)N[C@@H](Cc1ccccc1)C(=O)N[C@H](C(=O)N[C@@H](CC(N)=O)C(=O)N[C@@H](Cc1c[nH]c2ccccc12)C(=O)N[C@@H](CC(C)C)C(=O)N[C@H](C(=O)N[C@@H](CCC(N)=O)C(=O)N[C@H](C(=O)N[C@@H](CCCCN)C(=O)N[C@H](C(=O)N[C@H](C(=O)N[C@@H](CCCCN)C(=O)O)[C@@H](C)O)[C@@H](C)CC)[C@@H](C)O)[C@@H](C)CC)[C@@H](C)CC)[C@@H](C)O)[C@@H](C)CC)[C@@H](C)O) [Compound no. 44] |

The next lines start with the binder.

| Binder | Efficacy GIPR [1] [%] | Efficacy GLP-2R [2] [%] | EC50 (nM) GLP-2R [2] [nM] | logEC50 GLP-2R [2] | EC50 (nM) GIPR [1] [nM] |
| --- | --- | --- | --- | --- | --- |
| H[Aib]DGTFISDYK([γGlu-Palmitoyl])T[Aib]LDALAARDFIEWLIQTKITK-OH (N-terminus assumed; SMILES CCCCCCCCCCCCCCCC(=O)N[C@@H](CCC(=O)NCCCC[C@H](NC(=O)[C@H](Cc1ccc(O)cc1)NC(=O)[C@H](CC(=O)O)NC(=O)[C@H](CO)NC(=O)[C@@H](NC(=O)[C@H](Cc1ccccc1)NC(=O)[C@@H](NC(=O)CNC(=O)[C@H](CC(=O)O)NC(=O)C(C)(C)NC(=O)[C@@H](N)Cc1c[nH]cn1)[C@@H](C)O)[C@@H](C)CC)C(=O)N[C@H](C(=O)NC(C)(C)C(=O)N[C@@H](CC(C)C)C(=O)N[C@@H](CC(=O)O)C(=O)N[C@@H](C)C(=O)N[C@@H](CC(C)C)C(=O)N[C@@H](C)C(=O)N[C@@H](C)C(=O)N[C@@H](CCCNC(=N)N)C(=O)N[C@@H](CC(=O)O)C(=O)N[C@@H](Cc1ccccc1)C(=O)N[C@H](C(=O)N[C@@H](CCC(=O)O)C(=O)N[C@@H](Cc1c[nH]c2ccccc12)C(=O)N[C@@H](CC(C)C)C(=O)N[C@H](C(=O)N[C@@H](CCC(N)=O)C(=O)N[C@H](C(=O)N[C@@H](CCCCN)C(=O)N[C@H](C(=O)N[C@H](C(=O)N[C@@H](CCCCN)C(=O)O)[C@@H](C)O)[C@@H](C)CC)[C@@H](C)O)[C@@H](C)CC)[C@@H](C)CC)[C@@H](C)O)C(=O)O) [Compound no. 33] | 101 | 97 | – | – | – |
| Ac-H[Aib]DGTFISDYK([γGlu-Palmitoyl])T[Aib]LDNLAARDFINWLIQTKITKNDWKHNITQ-OH [Compound no. 38] | 81 | 89 | – | – | – |
| {C16 diacid}-HADGTFISDYST[Aib]LDNLAARDFINWLIQTKITKNDWKHNITQ [Compound no. 39] | 99 | 78 | 1 | 9 | – |
| Palmitoyl-HADGTFISDYSTILDNLAARDFINWLIQTKIT [Compound no. 2] | 80 | 59 | – | – | – |
| H[Aib]DGTFISDYK([γGlu-Palmitoyl])TILDNLAARDFINWLIETKITK-OH (N-terminus assumed; SMILES CCCCCCCCCCCCCCCC(=O)N[C@@H](CCC(=O)NCCCC[C@H](NC(=O)[C@H](Cc1ccc(O)cc1)NC(=O)[C@H](CC(=O)O)NC(=O)[C@H](CO)NC(=O)[C@@H](NC(=O)[C@H](Cc1ccccc1)NC(=O)[C@@H](NC(=O)CNC(=O)[C@H](CC(=O)O)NC(=O)C(C)(C)NC(=O)[C@@H](N)Cc1c[nH]cn1)[C@@H](C)O)[C@@H](C)CC)C(=O)N[C@H](C(=O)N[C@H](C(=O)N[C@@H](CC(C)C)C(=O)N[C@@H](CC(=O)O)C(=O)N[C@@H](CC(N)=O)C(=O)N[C@@H](CC(C)C)C(=O)N[C@@H](C)C(=O)N[C@@H](C)C(=O)N[C@@H](CCCNC(=N)N)C(=O)N[C@@H](CC(=O)O)C(=O)N[C@@H](Cc1ccccc1)C(=O)N[C@H](C(=O)N[C@@H](CC(N)=O)C(=O)N[C@@H](Cc1c[nH]c2ccccc12)C(=O)N[C@@H](CC(C)C)C(=O)N[C@H](C(=O)N[C@@H](CCC(=O)O)C(=O)N[C@H](C(=O)N[C@@H](CCCCN)C(=O)N[C@H](C(=O)N[C@H](C(=O)N[C@@H](CCCCN)C(=O)O)[C@@H](C)O)[C@@H](C)CC)[C@@H](C)O)[C@@H](C)CC)[C@@H](C)CC)[C@@H](C)CC)[C@@H](C)O)C(=O)O) [Compound no. 32] | 89 | 84 | 10 | 8 | – |
| H[Aib]DGTFISDYK([γGlu-Decanoyl])TILDKLAARDFIEWLIATKITK-OH (N-terminus assumed; SMILES CCCCCCCCCC(=O)N[C@@H](CCC(=O)NCCCC[C@H](NC(=O)[C@H](Cc1ccc(O)cc1)NC(=O)[C@H](CC(=O)O)NC(=O)[C@H](CO)NC(=O)[C@@H](NC(=O)[C@H](Cc1ccccc1)NC(=O)[C@@H](NC(=O)CNC(=O)[C@H](CC(=O)O)NC(=O)C(C)(C)NC(=O)[C@@H](N)Cc1c[nH]cn1)[C@@H](C)O)[C@@H](C)CC)C(=O)N[C@H](C(=O)N[C@H](C(=O)N[C@@H](CC(C)C)C(=O)N[C@@H](CC(=O)O)C(=O)N[C@@H](CCCCN)C(=O)N[C@@H](CC(C)C)C(=O)N[C@@H](C)C(=O)N[C@@H](C)C(=O)N[C@@H](CCCNC(=N)N)C(=O)N[C@@H](CC(=O)O)C(=O)N[C@@H](Cc1ccccc1)C(=O)N[C@H](C(=O)N[C@@H](CCC(=O)O)C(=O)N[C@@H](Cc1c[nH]c2ccccc12)C(=O)N[C@@H](CC(C)C)C(=O)N[C@H](C(=O)N[C@@H](C)C(=O)N[C@H](C(=O)N[C@@H](CCCCN)C(=O)N[C@H](C(=O)N[C@H](C(=O)N[C@@H](CCCCN)C(=O)O)[C@@H](C)O)[C@@H](C)CC)[C@@H](C)O)[C@@H](C)CC)[C@@H](C)CC)[C@@H](C)CC)[C@@H](C)O)C(=O)O) [Compound no. 31] | 89 | 90 | – | – | – |
| Ac-H[Aib]DGTFISDYK([γGlu-Palmitoyl])T[Aib]LDNLAARDFINWLIQTKITK-OH (SMILES CCCCCCCCCCCCCCCC(=O)N[C@@H](CCC(=O)NCCCC[C@H](NC(=O)[C@H](Cc1ccc(O)cc1)NC(=O)[C@H](CC(=O)O)NC(=O)[C@H](CO)NC(=O)[C@@H](NC(=O)[C@H](Cc1ccccc1)NC(=O)[C@@H](NC(=O)CNC(=O)[C@H](CC(=O)O)NC(=O)C(C)(C)NC(=O)[C@H](Cc1c[nH]cn1)NC(C)=O)[C@@H](C)O)[C@@H](C)CC)C(=O)N[C@H](C(=O)NC(C)(C)C(=O)N[C@@H](CC(C)C)C(=O)N[C@@H](CC(=O)O)C(=O)N[C@@H](CC(N)=O)C(=O)N[C@@H](CC(C)C)C(=O)N[C@@H](C)C(=O)N[C@@H](C)C(=O)N[C@@H](CCCNC(=N)N)C(=O)N[C@@H](CC(=O)O)C(=O)N[C@@H](Cc1ccccc1)C(=O)N[C@H](C(=O)N[C@@H](CC(N)=O)C(=O)N[C@@H](Cc1c[nH]c2ccccc12)C(=O)N[C@@H](CC(C)C)C(=O)N[C@H](C(=O)N[C@@H](CCC(N)=O)C(=O)N[C@H](C(=O)N[C@@H](CCCCN)C(=O)N[C@H](C(=O)N[C@H](C(=O)N[C@@H](CCCCN)C(=O)O)[C@@H](C)O)[C@@H](C)CC)[C@@H](C)O)[C@@H](C)CC)[C@@H](C)CC)[C@@H](C)O)C(=O)O) [Compound no. 34] | 75 | 103 | – | – | 10 |
